Consider 15 sequences from the DeepSol protein solubility set.

The nature of the data set: soluble on expression in E. coli; label from the status in PepcDB or PDB records.
Turning to “MGGDMLPSVLKDNLRLPVIASPLFIISHPQLTLAQCKAGVIGAFPALNARPESQLDEWLAMITEELAAYNRANPERPAAPFAVNQIVHMSNRRLEHDLGLCVKYKVPVVISSLGAVPEVNAAVHSYGGIVLHDVINDRHARSAIRKGADGLIAVAAGAGGHAGTLSPFALIQEIREWFDGPLLLAGAIANGGSILAAQAMGADMAYIGSPFIATEEARASDGYKQALVDAQAKDIVYSNYFTGVHGNYLKSSIVASGMDPDNLPEADPSKMDFETATGGAKAWKDIWGAGQGIGAIKAVEPVAALVDRLAAEYEAAKGRICAKA”, the “soluble on expression in E. coli” value is recorded as “not soluble”.

With “MGGMTGMNNNAIKVVSVLAIGARERIALVEVGQQQILLGITPSTIRTLHVFDEPVVDAGNAGSSDFARKLQSMIGKSWSAPERKDLEHHHHHH”, the “soluble on expression in E. coli” value was “not soluble”.

For the sequence “MGGNMEDVKMKCGLEIHVQIDTKSKLFCNCSTNYLDAEPNTNVCPVCLGLPGAKPLPPNKKAVEVAIMVAKMLGCKIVVDEDIYFQRKHYDYPDLPSGYQRTSTPIGVDGEFMGIGIHEVHLEEDPGQYNPSFGIVDYNRSGTPLIEIVTKPDIKSPEEAREFLKQLMTLFRYLGCLRGEGTMRADVNISIEYMGVQGNRVEVKNVNSIKGVYKVLKYELIRQKNIIKRGGEVKRETRAFLESQMITKAMRSKETAEDYRYIPDPDIQPIVISEKWVKEIEEKMPETPLAKKKRFVEEYGIDEEDAKVLVSDLDMAEMFEEVVKSLGVNKENVDLAVTWIRNELRRSLQYHKVDLYESGVKAEHIVELIKLIKEGVISQKIAKEIVDLLVINRGKKMPKELVEELGLTVIRDEDALVKAVEEAIKNNPKAVEDYLNGKKEALNFLMGQVMRLTRGRADPKRVIELLKERLDK”, the “soluble on expression in E. coli” value is given as “soluble”.

For “MGGSHHHHHHGMASALLDIECFTYLHRALESSIAPIVIFASNRGNCVIRGTEDITSPHGIPLDLLDRVMIIRTMLYTPQEMKQIIKIRAQTEGINISEEALNHLGEIGTKTTLRYSVQLLTPANLLAKINGKDSIEKEHVEEISELFYDAKSSAKILADQQDKYMK”, the “soluble on expression in E. coli” value was “not soluble”.

As for “MGGSHHHHHHGMASALSWKEARCQPAFLKDQARAIRLPPVDACRTQVRHGTGWGREPGILTGWGRRARDPDLGALPPGIQAAFCPGLPRCIEIELVHTAP”, the “soluble on expression in E. coli” value is recorded as “not soluble”.

“MGGSHHHHHHGMASLGMIKNSLFGSVETWPWQVLSKGDKEEVAYEERACEGGKFATVEVTDKPVDEALREAMPKVAKYAGGTNDKGIGMGMTVPISFAVFPNEDGSLQKKLKVWFRIPNQFQSDPPAPSDKSVKIEEREGITVYSMQFGGYAKEADYVAQATRLRAALEGTATYRGDIYFCTGYDPPMKPYGRRNEIWLLKT”: the “soluble on expression in E. coli” value was “not soluble”.

For the sequence “MGGTLLNISPTQHKILKLLIENEKISMREISEKLSVNMSTVSRNFRSLLESGFALKVEEASPGSSGGRKTALYTANPNKFFILGIGVEQNRLIGVVIDAKGNEVEKSEIHRSFRGDEIVNALVDCVEPFKEKYPNTVGISIGMPGIIKENKVIFSSALGIEDLDLGRILSKEFGTEIFVLNDANAAVVGYGFQKKNVVYFLISVPYYLNQPVGVGAGLWLEGSLYQGSNGAAGEFEIDILPSILSGPATLDEVDLKNLSSDSFLKLLSKLSEVASFVSYLLDPETVIFGGDITLFSPEFHSGLAKNVRDHLEKRHISDVEVLFDERGLWTVAFGAAKAFWKRILEDYEFAGKILK”, the “soluble on expression in E. coli” value is on record as “not soluble”.

On to “MGGVSDERLDLVNERDEVVGQILRTDPALRWERVRVVNAFLRNSQGQLWIPRRSPSKSLFPNALDVSVGGAVQSGETYEEAFRREAREELNVEIDALSWRPLASFSPFQTTLSSFMCVYELRSDATPIFNPNDISGGEWLTPEHLLARIAAGEAAKGDLAELVRRCYREEE”, for which the “soluble on expression in E. coli” value is “soluble”.

As for “MGHDLADIKKSFEASLPGYVEKKDPKSILPQPGKRNILITAALPYVNNVPHLGNIIGCVLSADVFARYCNLRGHQTFYVGGTDEYGTATETKALQEGCTPRELCDKYHAIHKGIYEWFGIDFSHFGRTTTDHQTEICQDMFLKLHKNGYTSSQSVDQLYCNQCEKFLADRFVTGTCPMCAYDDARGDQCDGCGKLINAVDLKDAKCHMCKATPEVKQSTHIFLSLDKLQQKTTEHLDRELAKEDNRWSSNAVGITKAWMKLGLDPRCITRDLKWGTAVPLDGFEKKVFYVWFDAPIGYLSITKCVLGDNWTKWWKNPENVELFNFVGKDNVAFHAVMFPCSQLGANDNYTVVNNLCATEYLNYEDTKFSKSRGTGIFGDAAQGTEIPADIWRFYLLYMRPESQDTAFSWDDFVLKVNSELLNNLGNFINRALSFVANSFGGVVPEMNLTNDDAEVLSEIHNECMQWDKQFDGVHLKDAVKTILNVSRLGNQYMQAQTPWVLMKKDEEGKKRAGTIIGVAANIAYHVSVLLYPIMPTISATIREQCGLPALPLFTPFPICYLKAGHKIGQPSPLFQKLDPAQIAEFKAKFGGSQDAQSSAPKTAEKPKQQKKQAPTKDKKGDKKMASTAAFVELEQGAKVISQLIAQNLKKFDQAKALFTRNQLQRLDGENKQLTIDVKTLQHQLIELETAAGIKQVPKPVVSCTPTPTSTPASGIITEAPKKEAPSTPAPSEPKKAKEQKKGKGGAAAAPVDDTIDVGRLDMRVGRIIKCEKHPDADALYVEQIDVGESAPRTVVSGLVRHVPLDQMQNRLVVVLCNLKPAKMRGVESRAMVMCASSPDKVEIMEVPADSKPGTPVVCPPYTHRPDEQLNPKKKIWETVAEDLKVSAEGFAEWKGQPLLIGSESKMTAPTLRGVHVK”, the “soluble on expression in E. coli” value is recorded as “not soluble”.

As for “MGHDTIAKFLLTSGSTGNPKAVINTQRMICANQVMIREAMAFLKDEPPVIVDWLPWNHTFGGNHNIGLTLFNGGSMYIDDGKPTPAGIASTIRNLREIAPTVYFNVPKGYESLLPVLREDQQLRKLFFSRLHAMFFSGASLAAHVWNGLDEVAVAETGARVPMLTGLGATETAPFFMSVTPQTSRSGHVGLPVPGLEHHHHHH”, the “soluble on expression in E. coli” value is “not soluble”.

“MGHHHHHHGGHMSLKNYFLQRRTLMTEQLPNCPECGSAYAYEDRGLFICPECGHEWSPTEEVAEEGLVVKDSNGNLLADGDSVTVIKDLKVKGASGAIKQGTKVKNIRLVEGDHNIDCKVDGFGPMKLKSEFVKKNEGGS”: the “soluble on expression in E. coli” value is “soluble”.

For the sequence “MGHHHHHHGGHMSLKVFIDPDGDIEEIKEAFRLINPELYERLLKIDGSDEFFRYMVKPLRVSVRVNTLKAEVDEVVENLKELITGRVPWCEEGFYLSIDEFSRIPEHQLGLIFSQEAASMIPPLVMELEPKMTVLDIAASPGAKTTQIAQYLQNEGCIVANDVKHSRINILISNLQRCGVLIAKVTVKDGRYFGRFRNRFDAVLVDAPCSNMGMIRKNYRNIRLWKMRDCYGLSKLQKSLLMAAYKAVKPGGVVVYSTCTLEPIENEEVVDYILRNTDAEIEEVNLPVKGVEPFTKFDGKEYSEEVRKCLRLHPQSSDTEGFFVAKLRKPEGGS”, the “soluble on expression in E. coli” value is on record as “soluble”.

“MGHHHHHHHHHHSSGHIEGRHMDINGVLLLDKPQGMSSNDALQKVKRIYNANRAGHTGALDPLATGMLPICLGEATKFSQYLLDSDKRYRVIARLGQRTDTSDADGQIVEERPVTFSAEQLAAALDTFRGDIEQIPSMYSALKYQGKKLYEYARQGIEVPREARPITVYELLFIRHEGNELELEIHCSKGTYIRTIIDDLGEKLGCGAHVIYLRRLAVSKYPVERMVTLEHLRELVEQAEQQDIPAAELLDPLLMPMDSPASDYPVVNLPLTSSVYFKNGNPVRTSGAPLEGLVRVTEGENGKFIGMGEIDDEGRVAPRRLVVEYPA”: the “soluble on expression in E. coli” value is “soluble”.

Turning to “MGHHHHHHSHAKGKERQWLRHQATGELDDAKIIDGLTGEKAIYKRRGELEPQLGSPQQKPKRLRLVVDVSGSMYRFNRMDGRLERTMEAVCMVMEAFENYEEKFQYDIVGHSGDGYNIGLVPMNKIPKDNKQRLEILKTMHAHSQFCMSGDHTLEGTEHAIKEIVKEEADEYFVIVLSDANLSRYGIHPAKFAQILTRDPQVNAFAIFIGSLGDQATRLQRTLPAGRSFVAMDTKDIPQILQQIFTSTMLSSV”, the “soluble on expression in E. coli” value was “not soluble”.

For “MGHHHHHHSHAWSGVLEWQEKPKPASVDANTKLTRSLPCQVYVNHGENLKTEQWPQKLIMQLIPQQLLTTLGPLFRNSRMVQFHFTNKDLESLKGLYRIMGNGFAGCVHFPHTAPCEVRVLMLLYSSKKKIFMGLIPYDQSGFVNGIRQVITNHKQVQQQKLEQQQRGMGGQQAPPGLGPILEDQAR”, the “soluble on expression in E. coli” value was “soluble”.
